Reference: PMC3977576 (Biochemistry, 2014)

Target: the molecule itself
Test: SEC-MALS

B1: IKK2EE(11–669) (domain or fragment)
chain: TCGAWEMKERLGTGGFGNVIRWHNQETGEQIAIKQCRQELSPRNRERWCLEIQIMRRLTHPNVVAARDVPEGMQNLAPNDLPLLAMEYCQGGDLRKYLNQFENCCGLREGAILTLLSDIASALRYLHENRIIHRDLKPENIVLQQGEQRLIHKIIDLGYAKELDQGELCTEFVGTLQYLAPELLEQQKYTVTVDYWSFGTLAFECITGFRPFLPNWQPVQWHSKVRQKSEVDIVVSEDLNGTVKFSSSLPYPNNLNSVLAERLEKWLQLMLMWHPRQRGTDPTYGPNGCFKALDDILNLKLVHILNMVTGTIHTYPVTEDESLQSLKARIQQDTGIPEEDQELLQEAGLALIPDKPATQCISDGKLNEGHTLDMDLVFLFDNSKITYETQISPRPQPESVSCILQEPKRNLAFFQLRKVWGQVWHSIQTLKEDCNRLQQGQRAAMMNLLRNNSCLSKMKNSMASMSQQLKAKLDFFKTSIQIDLEKYSEQTEFGITSDKLLLAWREMEQAVELCGRENEVKLLVERMMALQTDIVDLQRSPMGRKQGGTLDDLEEQARELYRRLREKPRDQRTEGDSQEMVRLLLQAIQSFEKKVRVIYTQLSKTVVCKQKALELLPKVEEVVSLMNEDEKTVVRLQEKRQKELWNLLKIACSKVRGPV
stoichiometry N: 2
